PMC9637739

Tests used:
[1] = target: S. pneumoniae IgA1P-E1605A (Streptococcus pneumoniae) (UniProt Q59947); test: ELISA; metallo-IgA1P mutant coated on Nunc MaxiSorp plate (20 nM by the methods, 100 nM by the legend of Fig. 2d), blocked 2 h at room temperature, human IgA1 with kappa LC added for 2 h, detected with anti-human IgA HRP and ABTS; estimated Kd
[2] = target: G. haemolysans IgA1P-E1848A (residues 907-2201) (Gemella haemolysans); test: as above

## Human IgA1 with kappa LC (monomeric) (antibody)
[1]
  Kd: 798 µM
[2]
  Kd: 1090 µM
